Biological target: the molecule itself
Test: AUC; sedimentation velocity, HP-NAP at 0.3 mg/ml in D-PBS, pH 7.2, 41,000 rpm, 20°C, SEDFIT c(s); monomer mass by LC-MS

B1: Helicobacter pylori neutrophil-activating protein (HP-NAP), recombinant, expressed in Bacillus subtilis (natural protein)
chain: MKTFEILKHLQADAIVLFMKVHNFHWNVKGTDFFNVHKATEEIYEEFADMFDDLAERIVQLGHHPLVTLSEAIKLTRVKEETKTSFHSKDIFKEILEDYKYLEKEFKELSNTAEKEGDKVTVTYADDQLAKLQKSIWMLQAHLA
notes: monomer 16.934 kDa by LC-MS (theoretical 16.933 kDa); napA was cut from pET28a-His-NAP with NdeI and XhoI and cloned into pRPA; The measured monomer mass (16.934 kDa) fits the theoretical mass of the whole untagged protein (16.933 kDa); also called recombinant HP-NAP; purified HP-NAP; source: B. subtilis DB104 harboring pRPA-NAP; copies: 12
- stoichiometry N: 12

Reference: paper PMC3620106, “One-Step Chromatographic Purification of Helicobacter pylori Neutrophil-Activating Protein Expressed in Bacillus subtilis” (PLoS ONE, 2013)
